From the supplement of paper PMC9170038

Test system: MS2 coat protein
Experiment: apparent KD of MS2 coat protein; designed switch direction (-1 OFF switch, 1 ON switch): -1; higher = weaker reporter binding
Method in brief: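 Designed RNA switches sharing common flanks were transcribed on Illumina chips by stalled E. coli RNA polymerase. They were titrated with SNAP-549-labelled MS2 coat protein, from 0.7 or 1.5 nM doubling to 3 µM, in Tris-HCl pH 7.5 buffer with KCl, MgCl2, BSA, DTT, tRNA and Tween-20. Titrations ran without input, with 200 uM small-molecule ligand, or with an oligonucleotide input. The apparent KD of each design is the median over its clusters, after curve-fitting of normalised cluster fluorescence.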

[1] = input ligand: microRNA oligo, concentration not stated
[2] = Eterna round: R95, input ligand: microRNA oligo, concentration not stated
[3] = Eterna round: R95, input ligand: FMN 200 uM
[4] = Eterna round: R95, input ligand: none

Sequence	apparent KD of MS2 coat protein (input ligand: FMN 200 uM) [nM]	apparent KD of MS2 coat protein [1] [nM]	apparent KD of MS2 coat protein (input ligand: none) [nM]	apparent KD of MS2 coat protein [2] [nM]	apparent KD of MS2 coat protein [3] [nM]	apparent KD of MS2 coat protein [4] [nM]
GGAGGACGAGCAGGAUAUUUUCACAUGAGGAUCACCCAUGUGUACUCAGGGUAAUCCUCCGCCGAAGAGAAGGGUUCGGAAGAA [Socedi] (Eterna round: R96, puzzle: Exclusion NG 2)	91	23	57.1	–	–	–
UUGAAGUCGUCAGGAUAUAGUUUUAAUGUCAUGCGUAUGUUCUUACAUGAGGAUCACCCAUGUCGCUAGAAGGGACUAUAGAUU [JR_ExcNG2_Sub009] (Eterna round: R96, puzzle: Exclusion NG 2)	53.3	36.4	51.6	–	–	–
GAGUGACAUGAGGAUCACCCAUGUGAGGAUAUCGGACGGACCUUGUUGGCUUCCGCCGCGAGAAGGCACAUCGG [Exclusion 1 V26] (puzzle: Exclusion 1)	–	–	–	87.5	–	–
UUUUUCAGGCCAGAUCCUCACAUGAGGAUCACCCAUGUGCUCGUCUGUUUUCGCACUAUCUUUUUUUUGAUAGUGCU [Level Boss var2-13] (puzzle: Sensor v3, turn-off variant 1)	–	–	–	26.8	291	309
CAUGGAACGUAGGAUAUCUCGCAGCCCGGCCGCAGAGAAGGACGUACAUGAGGAUCACCCAUGUAUGAUCCAAA [Zareinon] (puzzle: Exclusion 6)	–	–	–	19.8	32.2	26.2
UAUGGUUAAGUCAGGAUAUACGUACAGAUAUCUGAGUAGAAGGGACAUGAGGAUCACCCAUGUAUGGUAGUGUU [Ex4 #53] (Eterna round: R97, puzzle: Brourd's mod of Exclusion 4)	187	–	64.8	–	–	–
CCAACCAGAGGAUAUGCGAAUAAAUAAAACUUUUUUUUUUAACAUGAGGAUCACCCAUGUAGAAGGCUGCAACC [Ex2 #39] (Eterna round: R97, puzzle: Exclusion 2)	32	–	34.8	–	–	–
AUAUAGAUGGUCAGGAUAUGCUAGUGGUAACAGUAGCAGAAGGGACAUGAGGAUCACCCAUGUAGAUCCUGCUC [Brourd's EX4 #13] (Eterna round: R97, puzzle: Brourd's mod of Exclusion 4)	33.5	–	21.1	–	–	–
ACAUGAGGAUCACCCAUGUGCACGUAAUGGCUCAUGUAGAGAGAGGAUAUGCGUGACGAACGAGCGCAGAAGGCUCAAGACUGG [Deportation 15 - Jieux - Exclusion NG 3] (Eterna round: R96, puzzle: Exclusion NG 3)	114	66.2	73.1	–	–	–
CAGUACUGAGGAUAUACAUGAGGAUCACCCAUGUGUUCCAGCUAGGAAACUAGCAAAUGUAGAAGGCAGUACUG [salish99_ex3_r3_089 (STABLE!)] (puzzle: Exclusion 3)	–	–	–	217	94.1	234
AUAAUAGUAGGAGGAUAUCGCAGGAUAUGGGCCUUAAAACAUAACAUGAGGAUCACCCAUGUGCACGAGAAGGCCUGGAAAAUA [Orsolavera] (Eterna round: R96, puzzle: Exclusion NG 2)	25.7	11.5	18.6	–	–	–
GCAAGCUUUUGCUCGUCUUACAUGAGGAUCACCCAUGUCGGGCCCGGCCGUCGCGGCCGGGCCCGCCGGGCGCCGGG [-41.9, -69.5 kcal, A 10%] (Eterna round: R97, puzzle: Sensor, turn-off variant 1)	53.5	–	64.1	–	–	–
ACCUAAAAGCUAGGAUAUACAUGAGGAUCACCCAUGUACACAGGAAGACUAACCUGUGGACUCAUGUAGAAGGAGCAUGACAAA [Raengearle] (Eterna round: R96, puzzle: Exclusion NG 2)	117	349	283	–	–	–
AGCGAGGUAGGAUAUACAUGAGGAUCACCCAUGUGCUUGCAUGGCGUGGAACGUCGAGGUAGAAGGGCCAUGCC [EX3 #73] (Eterna round: R97, puzzle: Exclusion 3)	24.5	–	27.8	–	–	–
UCCUGGCGAGGAUAUACAAUGUUAUUCGCGUGUAGUUGGAAACAUGAGGAUCACCCAUGUAGAAGGUGCUACUG [JR_Ex2_Sub025] (Eterna round: R97, puzzle: Exclusion 2)	27.4	–	23.8	–	–	–
AAGUACCGUCACGAUAGUGAUGGUACAACAGGCAAAUGUACAUGAGGAUCACCCAUGUCCUCUUUUGCUCGUCUUAU [Sensor 3 - 99] (puzzle: Sensor v3, turn-off variant 2)	–	–	–	31	48.9	54.7
AAAUGCAAGUAAAGAUCCUACAUGAGGAUCACCCAUGUGCUCGUCUUAUAAAGUACUAUCACGAAAGUGAUAGUACA [Sensor 3, v1 - 21] (puzzle: Sensor v3, turn-off variant 1)	–	–	–	30.2	161	211
UUUUUACAUGAAGGAUAUACUUAACAUGAGGAUCACCCAUGUGGUGUUGUGAGUGAGUGAGUUUAGUAGAAGGUCAAUUAUUUU [JMF's solution 22] (Eterna round: R96, puzzle: Exclusion NG 2)	556	241	314	–	–	–
AUCGUGCAGCAAAGCUGUACGAGUACAUGAGGAUCACCCAUGUAGGAUAUGGUACGCAAAGCGUGCUAGAAGGAUAUGUGUAAG [Mat - Exclusion NG 3 - Mod of JL - D85] (Eterna round: R96, puzzle: Exclusion NG 3)	65.5	39.9	61.6	–	–	–
CGAGCUUUUUGCUCGUCUUACAUGAGGAUCACCCAUGUCGAGCGAGCGAGCGAGCGAAAGUUUGUUUGUUUGUUUGA [Mod of sellena 3] (Eterna round: R97, puzzle: Sensor, turn-off variant 1)	21.4	–	20.4	–	–	–
CGGUGCAGGCUGCGGUCCUACAUGAGGAUCACCCAUGUGGUCCGGUGGCGUGGGUCGCCGGACUUGGCUCGUCUUGU [salish99_S_TOV1_R5_015] (Eterna round: R97, puzzle: Sensor, turn-off variant 1)	56.8	–	75.6	–	–	–
AGGGCUGCUCAGGAUAUCCGUAAAAGCCGAGAAGGAGAAGGGAGCACAUGAGGAUCACCCAUGUGAUCCGAAAA [Verila] (puzzle: Exclusion 6)	–	–	–	19.7	–	–
GCGCACCUACCAAAAGGUAGGACAACAUGAGGAUCACCCAUGUAGGAUAUCGAUUGCUUUGCAGUCGAGAAGGACAUGAUGCGC [JL ENG3 3.80 Mod 7] (Eterna round: R96, puzzle: Exclusion NG 3)	111	25.9	34.7	–	–	–
AGUACUAACACGUAUGUGUUAGUACAAUAAGCUUGUGAAACAUGAGGAUCACCCAUGUCCUCAUAAGCUCGUCUUAU [salish99_TOv2_r3_066] (puzzle: Sensor v3, turn-off variant 2)	–	–	–	764	18.1	15
